This passage reports Kd, koff and kon results from patent US20260234245A1 (ELTHERA, published 2026).

First the molecules themselves.
B1: H2L2 (antibody, V domains shown)
VH: QVQLQESGPGLVKPSQTLSLTCTVTGYSITSDYAWNWIRQFPGNGLEWIGYISYSGSFSYHPSLKSRVTISRDTSKNQFSLKLSSVTAADTAVYYCARSFSYGYGFAYWGQGTLVTVSS
VL: DIVMTQSPSSLSASVGDRVTITCKASQDVSSAVAWYQQKPGQSPKLLIYSASYRYTGVPDRFSGSGSGTDFTFTISSLQPEDFATYYCQQHYSTPWTFGGGTKLEIK
notes: also called humanized antibody variant H2L2
B2: H4L2 (antibody, V domains shown)
VH: QVQLQESGPGLVKPSQTLSLTCTVTGYSITSDYAWNWIRQFPGNKVEWMGYISYSGSFSYHPSLKSRVTISRDTSKNQFSLKLSSVTAADTAVYYCARSFSYGYGFAYWGQGTLVTVSS
VL: DIVMTQSPSSLSASVGDRVTITCKASQDVSSAVAWYQQKPGQSPKLLIYSASYRYTGVPDRFSGSGSGTDFTFTISSLQPEDFATYYCQQHYSTPWTFGGGTKLEIK
notes: also called humanized antibody variant H4L2
B3: H3L1 (antibody, V domains shown)
VH: QVQLQESGPGLVKPSQTLSLTCTVTGYSITSDYAWNWIRQFPGNGLEWMGYISYSGSFSYHPSLKSRVTISRDTSKNQFSLKLSSVTAADTAVYYCARSFSYGYGFAYWGQGTLVTVSS
VL: DIQMTQSPSSLSASVGDRVTITCKASQDVSSAVAWYQQKPGKAPKLLIYSASYRYTGVPSRFSGSGSGTDFTFTISSLQPEDFATYYCQQHYSTPWTFGGGTKVEIK
notes: also called humanized antibody variant H3L1
B4: H3L2 (antibody, V domains shown)
VH: QVQLQESGPGLVKPSQTLSLTCTVTGYSITSDYAWNWIRQFPGNGLEWMGYISYSGSFSYHPSLKSRVTISRDTSKNQFSLKLSSVTAADTAVYYCARSFSYGYGFAYWGQGTLVTVSS
VL: DIVMTQSPSSLSASVGDRVTITCKASQDVSSAVAWYQQKPGQSPKLLIYSASYRYTGVPDRFSGSGSGTDFTFTISSLQPEDFATYYCQQHYSTPWTFGGGTKLEIK
notes: also called humanized antibody variant H3L2
B5: H4L1 (antibody, V domains shown)
VH: QVQLQESGPGLVKPSQTLSLTCTVTGYSITSDYAWNWIRQFPGNKVEWMGYISYSGSFSYHPSLKSRVTISRDTSKNQFSLKLSSVTAADTAVYYCARSFSYGYGFAYWGQGTLVTVSS
VL: DIQMTQSPSSLSASVGDRVTITCKASQDVSSAVAWYQQKPGKAPKLLIYSASYRYTGVPSRFSGSGSGTDFTFTISSLQPEDFATYYCQQHYSTPWTFGGGTKVEIK
notes: also called humanized antibody variant H4L1

This assay deals with T1, soluble His-tagged human L1CAM (extracellular portion, amino acids 20 to 1120) (human, UniProt P32004 20-1120).
T1 construct: range 20-1120; Expressed in HEK cells with an N-terminal leader peptide for secretion (not part of the assayed protein)
T1 sequence (P32004 other isoform, or with tags, fused parts or gaps limits assumed): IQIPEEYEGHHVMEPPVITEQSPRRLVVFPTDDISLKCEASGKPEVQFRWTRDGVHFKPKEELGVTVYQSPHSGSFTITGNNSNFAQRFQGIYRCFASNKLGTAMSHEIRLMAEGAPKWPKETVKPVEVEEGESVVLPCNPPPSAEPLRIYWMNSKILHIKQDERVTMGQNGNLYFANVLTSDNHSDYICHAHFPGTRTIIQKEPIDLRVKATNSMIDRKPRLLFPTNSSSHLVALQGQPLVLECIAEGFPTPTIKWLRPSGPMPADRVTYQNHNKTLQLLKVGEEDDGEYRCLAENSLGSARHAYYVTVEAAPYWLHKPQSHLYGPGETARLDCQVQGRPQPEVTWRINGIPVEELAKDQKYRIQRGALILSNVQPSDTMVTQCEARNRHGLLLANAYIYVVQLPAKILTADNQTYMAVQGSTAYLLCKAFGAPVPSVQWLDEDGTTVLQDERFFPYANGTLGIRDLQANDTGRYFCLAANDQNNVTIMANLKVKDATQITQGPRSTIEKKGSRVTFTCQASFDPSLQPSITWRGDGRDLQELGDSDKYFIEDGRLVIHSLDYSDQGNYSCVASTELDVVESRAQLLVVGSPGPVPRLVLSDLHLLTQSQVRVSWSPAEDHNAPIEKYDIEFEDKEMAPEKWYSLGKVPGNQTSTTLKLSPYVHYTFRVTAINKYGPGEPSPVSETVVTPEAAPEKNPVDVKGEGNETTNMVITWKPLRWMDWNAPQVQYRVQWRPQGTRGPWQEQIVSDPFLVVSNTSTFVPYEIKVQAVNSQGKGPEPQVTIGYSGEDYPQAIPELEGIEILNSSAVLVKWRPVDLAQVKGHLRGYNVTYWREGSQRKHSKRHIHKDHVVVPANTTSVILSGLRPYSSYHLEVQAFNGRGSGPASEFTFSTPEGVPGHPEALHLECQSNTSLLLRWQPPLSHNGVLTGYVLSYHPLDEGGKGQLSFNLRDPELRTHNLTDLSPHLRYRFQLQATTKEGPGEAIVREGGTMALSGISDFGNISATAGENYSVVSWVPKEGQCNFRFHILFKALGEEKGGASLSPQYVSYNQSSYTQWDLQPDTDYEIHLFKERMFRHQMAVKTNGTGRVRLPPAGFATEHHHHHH
Briefly: SPR (Biacore T200), antibody captured on C1 Protein A chip, His-tagged human L1CAM as analyte 10, 20, 40 nM, 1:1 Langmuir fit. The procedure: Monovalent kinetic binding constants of the eight humanized antibody variants towards human L1CAM were determined by surface plasmon resonance using a Biacore T200 instrument. Antibodies were captured via their Fc regions on a C1 Protein A Chip (GE Healthcare), and soluble His-tagged human L1CAM was injected as analyte in 3 different concentrations (10, 20 and 40 nM), using 10 mM HEPES/150 mM NaCl/3 mM EDTA/0.05% Tween 20 as running buffer. Detected resonance units (sensorgrams) were fitted to a 1:1 Langmuir binding model and association (kₐ) and dissociation (kd) rate constants as well as the affinity constants (KD) were calculated.
A general note: Surface plasmon resonance follows binding to a sensor surface in real time, without labels.
As for B1, binding was characterised by a dissociation constant (Kd) of 6 nM; the koff – broadly, the rate constant with which the complex falls apart – was 0.000867 s⁻¹; the kon (usually the second-order rate constant of association) came out at 144000 M⁻¹ s⁻¹.

B2: binding was put at a Kd of 6.3 nM, the koff came to 0.000859 s⁻¹ and the kon stood at 137000 M⁻¹ s⁻¹.

Take B3: the Kd (in general, the constant that tells how readily two partners part at equilibrium) stood at 5.1 nM; the koff is 0.000858 s⁻¹; the kon is 168000 M⁻¹ s⁻¹.

Regarding B4, the Kd is 6.8 nM, the koff was 0.000887 s⁻¹ and the on-rate (kon) came to 131000 M⁻¹ s⁻¹.

B5: the Kd turned out to be 4.7 nM, the off-rate (koff) came out at 0.000847 s⁻¹ and the kon stood at 179000 M⁻¹ s⁻¹.
